Reference: US20050064403A1

Tests used:
[1] = target: Kunitz trypsin inhibitor from soybeans (soybean) (UniProt P01070); test: cell-based or functional assay
[2] = target: T1, Kunitz trypsin inhibitor from soybeans (UniProt P01070)
T1 sequence: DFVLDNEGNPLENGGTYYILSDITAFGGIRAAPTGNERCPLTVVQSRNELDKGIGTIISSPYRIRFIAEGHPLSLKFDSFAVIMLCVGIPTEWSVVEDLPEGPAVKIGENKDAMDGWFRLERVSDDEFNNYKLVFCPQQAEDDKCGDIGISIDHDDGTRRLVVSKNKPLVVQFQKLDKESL

[3] = target: T2, Kunitz trypsin inhibitor from soybeans, P01070
T2 chain: T1 sequence

Albumin (control) showed a Remaining TI activity (%) [1] of 100%.

Work on Bromelain yielded a Remaining TI activity (%) [2] of 30%.

B1: Papain (protein)
chain: IPEYVDWRQKGAVTPVKNQGSCGSCWAFSAVVTIEGIIKIRTGNLNEYSEQELLDCDRRSYGCNGGYPWSALQLVAQYGIHYRNTYPYEGVQRYCRSREKGPYAAKTDGVRQVQPYNEGALLYSIANQPVSVVLEAAGKDFQLYRGGIFVGPCGNKVDHAVAAVGYGPNYILIKNSWGTGWGENGYIRIKRGTGNSYGVCGLYTSSFYPVKN
For B1, the Remaining TI activity (%) [3] was 25%.

B2: cysteine proteinase encoded by Aspergillus niger gene nr 28 (protein)
chain: MSKLSAAISKLSLSTIATTLLLLTPPTTAYFYKYPALFVYKDTNCTDISFSLVYPSLGNCNGGYYDYAGSFQMFNIDAAYTCNGSDSTLMFEMYNSSGSDCGDESDLLFRQPVTEECTVADVESPGPLEMPVWFELGSLLGNCGGMAGTMLFGVGILEGGLETKLYWKCYSSRLNTSVTVHRLSLILSMGCTSVSDSYNELAAAHYYEDL
For B2, the Remaining TI activity (%) [3] was 26%.
